One assay deals with human IGF-1 (human) (UniProt P05019). As to the kind of experiment: specificity phage ELISA.
Another assay concerns the target human VEGF (human) (UniProt P15692). The assay is described as follows: specificity phage ELISA.
The target in a further assay is human insulin (human) (UniProt P01308). The assay is described as follows: specificity phage ELISA.
Another assay concerns the target neutravidin (UniProt P02701). As to the kind of experiment: specificity phage ELISA.
For assay [1], the target named is T1, human HER-2 extracellular domain (HER-2 ECD) (human, UniProt P04626 23-646).
T1 construct: range 23-646; also called erbB2; HER2 protein
As to the kind of experiment: competitive Fab-phage ELISA.

Assay [2] has as its target T1, human HER-2 extracellular domain (HER-2 …). The assay is described as follows: Fab-phage binding affinity.
Assay [3] has the same target. As to the kind of experiment: competitive Fab-phage ELISA. This is another data set of the same source.
The target is the same in assay [4]. The assay is described as follows: SPR (BIAcore A100), HER2 amine-coupled to the chip, soluble Fab injected, 25 C.
Assay [5] shares this target. The assay is described as follows: competitive Fab-phage ELISA. This is another data set of the same source.
Assay [6] concerns the target human DR5 (construct not stated) (human) (UniProt O14763). The assay is described as follows: specificity phage ELISA.

B1: G29 (Fab, V domains shown)
VH: EVQLVESGGGLVQPGGSLRLSCAASGFSIWWSWIHWVRQAPGKGLEWVASISPSSGWTSYADSVKGRFTISADTSKNTAYLQMNSLRAEDTAVYYCARWWSSAIDYWGQGTLVTVSS
VL: DIQMTQSPSSLSASVGDRVTITCRASQDVNTAVAWYQQKPGKAPKLLIYSASSLYSGVPSRFSGSRSGTDFTLTISSLQPEDFATYYCQQSWWWPWTFGQGTKVEIK
As to B1, the ELISA signal at 450 nm is 0.32 in the assay with human IGF-1 (human), 0.33 in the assay with human VEGF (human), 0.26 with human insulin (human) and 0.26 in the assay with neutravidin. This molecule also returned an IC50 in [1] of 1.96 nM.

B2: G40 (Fab, V domains shown)
VH: EVQLVESGGGLVQPGGSLRLSCAASGFSIWWSWIHWVRQAPGKGLEWVASISPSSGWTSYADSVKGRFTISADTSKNTAYLQMNSLRAEDTAVYYCARWSSWGLDYWGQGTLVTVSS
VL: DIQMTQSPSSLSASVGDRVTITCRASQDVNTAVAWYQQKPGKAPKLLIYSASSLYSGVPSRFSGSRSGTDFTLTISSLQPEDFATYYCQQWSWWPSTFGQGTKVEIK
For B2, the ELISA signal at 450 nm with human IGF-1 (human) worked out at 0.85; in the assay with human VEGF (human), 0.31; with human insulin (human), 2.64; with neutravidin, 0.45. The molecule also displayed an IC50 in assay [1] of 1.8 nM.

B3: Clone YSGR-A-42, purified soluble Fab (Fab, V domains shown)
VH: EVQLVESGGGLVQPGGSLRLSCAASGFYISSSSIHWVRQAPGKGLEWVAYIYPSSGYTSYADSVKGRFTISADTSKNTAYLQMNSLRAEDTAVYYCARGYYYSYYSGYALDYWGQGTLVTVSS
VL: DIQMTQSPSSLSASVGDRVTITCRASQDVNTAVAWYQQKPGKAPKLLIYSASSLYSGVPSRFSGSRSGTDFTLTISSLQPEDFATYYCQQSYSSPSTFGQGTKVEIK
notes: also called clone 42 (YSGR-A); clone 42
On to B3, for which the IC50 in assay [2] came to 0.32 nM. In assay [3], this molecule had a concentration for half-maximal inhibition (IC50) of 0.32 nM. Besides, in [4], the Kd amounted to 0.57 nM, the koff came out at 0.0015 s⁻¹ and the kon came out at 2.7e+06 M⁻¹ s⁻¹.

B4: B27 (Fab, V domains shown)
VH: EVQLVESGGGLVQPGGSLRLSCAASGFSISYSSIHWVRQAPGKGLEWVASIYPYYGYTSYADSVKGRFTISADTSKNTAYLQMNSLRAEDTAVYYCARFFFFSSSFFGFDYWGQGTLVTVSS
VL: DIQMTQSPSSLSASVGDRVTITCRASQDVNTAVAWYQQKPGKAPKLLIYSASSLYSGVPSRFSGSRSGTDFTLTISSLQPEDFATYYCQQYSYYPYTFGQGTKVEIK
notes: also called SXH3-B27 Fab-phage
Regarding B4, the IC50 in assay [2] and in assay [5] was 71.7 nM each time.

B5: G35 (Fab, V domains shown)
VH: EVQLVESGGGLVQPGGSLRLSCAASGFSISWSWIHWVRQAPGKGLEWVASIWPSSGWTSYADSVKGRFTISADTSKNTAYLQMNSLRAEDTAVYYCARWWSSALDYWGQGTLVTVSS
VL: DIQMTQSPSSLSASVGDRVTITCRASQDVNTAVAWYQQKPGKAPKLLIYSASSLYSGVPSRFSGSRSGTDFTLTISSLQPEDFATYYCQQWWWWPSTFGQGTKVEIK
Regarding B5, the ELISA signal at 450 nm with human IGF-1 (human) worked out at 0.25; with human VEGF (human), 0.31; with human insulin (human), 0.37; in the assay with neutravidin, 0.29. Besides, in [1], the IC50 came out at 0.65 nM.

B6: G36 (Fab, V domains shown)
VH: EVQLVESGGGLVQPGGSLRLSCAASGFSIWWSWIHWVRQAPGKGLEWVASISPSSGWTSYADSVKGRFTISADTSKNTAYLQMNSLRAEDTAVYYCARWSSSAFDYWGQGTLVTVSS
VL: DIQMTQSPSSLSASVGDRVTITCRASQDVNTAVAWYQQKPGKAPKLLIYSASSLYSGVPSRFSGSRSGTDFTLTISSLQPEDFATYYCQQWWWWPSTFGQGTKVEIK
On to B6, for which the ELISA signal at 450 nm with human IGF-1 (human) is 0.3; in the assay with human VEGF (human) it was 0.38; in the assay with human insulin (human), 0.29; with neutravidin, 0.26. In assay [1], this molecule gave an IC50 of 1.2 nM.

B7: Clone G37 (SX-surface), purified Fab (Fab, V domains shown)
VH: EVQLVESGGGLVQPGGSLRLSCAASGFSIWWSWIHWVRQAPGKGLEWVASISPSSGWTSYADSVKGRFTISADTSKNTAYLQMNSLRAEDTAVYYCARWWSSAMDYWGQGTLVTVSS
VL: DIQMTQSPSSLSASVGDRVTITCRASQDVNTAVAWYQQKPGKAPKLLIYSASSLYSGVPSRFSGSRSGTDFTLTISSLQPEDFATYYCQQWWWWPSTFGQGTKVEIK
Take B7: the ELISA signal at 450 nm in assay [6] came out at 0.21; in the assay with human IGF-1 (human) it was 0.32; with human VEGF (human), 0.23; in the assay with human insulin (human) it was 0.45; in the assay with neutravidin, 0.32. The IC50 in assay [2] and in assay [1] was 0.31 nM each time.

B8: Clone B11 (SXH3), purified soluble Fab (Fab, V domains shown)
VH: EVQLVESGGGLVQPGGSLRLSCAASGFSIYSSYIHWVRQAPGKGLEWVASIYPYSGYTSYADSVKGRFTISADTSKNTAYLQMNSLRAEDTAVYYCARWWSSAFDYWGQGTLVTVSS
VL: DIQMTQSPSSLSASVGDRVTITCRASQDVNTAVAWYQQKPGKAPKLLIYSASSLYSGVPSRFSGSRSGTDFTLTISSLQPEDFATYYCQQSYYYPSTFGQGTKVEIK
notes: Tryptophan-containing clone
The molecule B8 came in with an IC50 in [2] of 0.85 nM. In [5], this molecule displayed an IC50 of 0.85 nM. Moreover, in [4], the affinity, expressed as Kd, was 0.89 nM; the dissociation rate constant (koff) was found to be 0.0017 s⁻¹; the kon was 1.9e+06 M⁻¹ s⁻¹.

B9: Clone G54 (SX-surface), purified soluble Fab (Fab, V domains shown)
VH: EVQLVESGGGLVQPGGSLRLSCAASGFSISSSYIHWVRQAPGKGLEWVASIYPYSGYTSYADSVKGRFTISADTSKNTAYLQMNSLRAEDTAVYYCARYYSYALDYWGQGTLVTVSS
VL: DIQMTQSPSSLSASVGDRVTITCRASQDVNTAVAWYQQKPGKAPKLLIYSASSLYSGVPSRFSGSRSGTDFTLTISSLQPEDFATYYCQQSYYYPSTFGQGTKVEIK
notes: Tyrosine-containing clone
In [2], B9 gave an IC50 of 2.44 nM. Also, the IC50 in [1] is 2.44 nM. Besides, in assay [4], the affinity, expressed as Kd, was 11 nM; the koff worked out at 0.0022 s⁻¹; the kon is 200000 M⁻¹ s⁻¹.

B10: G32 (Fab, V domains shown)
VH: EVQLVESGGGLVQPGGSLRLSCAASGFSIWWSWIHWVRQAPGKGLEWVASISPSSGWTSYADSVKGRFTISADTSKNTAYLQMNSLRAEDTAVYYCARWWSSGMDYWGQGTLVTVSS
VL: DIQMTQSPSSLSASVGDRVTITCRASQDVNTAVAWYQQKPGKAPKLLIYSASSLYSGVPSRFSGSRSGTDFTLTISSLQPEDFATYYCQQWWWWPWTFGQGTKVEIK
For the molecule B10, the ELISA signal at 450 nm stood at 0.52 with human IGF-1 (human), 0.35 in the assay with human VEGF (human), 0.48 with human insulin (human) and 0.33 with neutravidin. In addition, the IC50 in [1] was 1.12 nM.

Source of the values: US20070202552A1 (Genentech, published 2007).
